Assay results taken from patent US20090075291A1, “PEPTIDE-BASED REGULATION OF GAP JUNCTIONS” (The Research Foundation of State University of New York, priority 2006, published 2009).

What was measured:
[1] = tested on: junctional conductance (Gj) of cell pairs; experiment: Heptanol-induced uncoupling of cell pairs, junctional conductance time course; format: cell-based; settings: compared with cell pairs without peptide
Experimental: Cells were treated with heptanol to reduce coupling and with NL.RXPE.

[2] = target: T1, cardiac Cx43 (Rattus norvegicus, UniProt P08050); experiment: GST pulldown of Cx43 from rat heart lysate, western blot; format: binding; settings: GST fusion on glutathione beads, western blot for Cx43
T1 construct: from tissue; host or cells: rat heart lysate
T1 sequence (P08050 whole entry, the tested form may be a part): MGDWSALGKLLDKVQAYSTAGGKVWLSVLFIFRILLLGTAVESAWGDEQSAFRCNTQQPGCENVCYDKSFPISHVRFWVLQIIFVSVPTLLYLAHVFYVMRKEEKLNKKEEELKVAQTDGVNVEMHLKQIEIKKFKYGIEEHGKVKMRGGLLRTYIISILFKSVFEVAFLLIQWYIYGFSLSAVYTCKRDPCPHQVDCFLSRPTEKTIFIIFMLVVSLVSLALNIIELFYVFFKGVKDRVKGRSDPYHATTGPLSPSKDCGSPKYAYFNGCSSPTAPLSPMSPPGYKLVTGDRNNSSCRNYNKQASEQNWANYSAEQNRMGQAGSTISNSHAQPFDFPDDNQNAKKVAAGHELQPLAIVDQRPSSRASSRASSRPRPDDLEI
Text: cDNA coding for […] (SEQ ID NO:11) (“NL.RXPE”) was cloned in-frame with the cDNA for glutathione S-transferase (“GST”). The resulting fusion protein, GST-NL.RXPE was produced in bacteria, and purified by conventional methods. GST-NL.RXPE was bound to glutathione beads and exposed to a rat heart lysate. After washing of the supernatant, the pellets were heated to separate the proteins from the beads. Two additional proteins were produced in parallel, and used as control: GST alone (not fused to any peptide) and GST fused to RXPE. After exposure to heart lysate, the resulting complexes that were “fished out” by the bait proteins were run on SDS-PAGE, transferred to a nitrocellulose membrane, and probed with an antibody for Cx43. […] It is expected that other peptides of formula A-An interact with Cx43, and may be used in the methods of the present invention.

[3] = target: T2, Cx43CT (Rattus norvegicus, UniProt P08050); experiment: Non-biased 12-mer phage display screening against Cx43CT; format: binding; settings: 156 phage plaques sequenced after three rounds; pH 6.5
T2 construct: GST (N, cleaved yes); made in house; host or cells: E. coli BL-21
T2 sequence (P08050 255-382): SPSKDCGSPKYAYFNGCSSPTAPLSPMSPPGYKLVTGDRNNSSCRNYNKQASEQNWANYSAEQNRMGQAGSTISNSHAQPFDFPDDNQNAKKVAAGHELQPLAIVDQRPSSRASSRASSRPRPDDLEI
Experimental: A “library” of bacteriophage, displaying ˜[…] of 2.7×10^9 random 12-mer peptides (Ph.D.-12™ Phage display peptide library kit; New England BioLabs Inc.) was utilized. Wells in 24-well plates were coated with 15 μg of recombinant CT and blocked with 5 mg/ml BSA. After removing the unbound viruses by washing with Tris buffered saline containing 0.5% tween-20 (TBS-T), low affinity binders were eluted with a solution of TBS-containing Cx43CT at a concentration of 100 μg/ml. High affinity binders were recovered by overlaying the well with a culture of E. coli, to allow the tightly bound phage to infect the bacteria. This culture was amplified and the virus was precipitated with PEG. The amplified product was used for the subsequent round of panning. All steps were conducted at pH 6.5 unless otherwise indicated.
After three rounds of selection and amplification, the phage recovered from the last round of binding were grown on a lawn of E. coli for plaque purification. Each plaque, representing a single clone, was picked and amplified. The phage were isolated and analyzed by DNA sequencing.
The library was presented to Cx43CT. After three rounds of selection and amplification, DNA of 156 phage plaques was purified and sequenced. Of the estimated 2.7×10^9 different sequences in the library, 48 unique sequences were recovered. […]

“SDDLRSPQLHNHMVRRKPRNPR (RXP-containing peptide) [NL.RXPE]” was tested, and the “Rate of heptanol-induced uncoupling (normalized Gj)” value [1] was “uncoupled at a much slower rate” and the “Recovery of Cx43 with GST-fused peptide as bait” value [2] was “Cx43 was also recovered”.

With “PRPTMGNLPDVL (Peptide sequence from phage library)” the “Number of phage plaques from which the sequence was recovered” value [3] was 45 plaques.
